In paper PMC10866667, “CTRP4/interleukin-6 receptor signaling ameliorates autoimmune encephalomyelitis by suppressing Th17 cell differentiation” (The Journal of Clinical Investigation, 2023):
Blank lines part the entries; values can stand above or below the binder they belong to.

How the values were obtained:
[1] = biological target: T1, IL-6 receptor (IL-6R), in Jurkat cell membrane extract (UniProt P08887 20-468); test: radioligand binding; competition: Jurkat cell membrane extract and 125I-CTRP4 with different concentrations of unlabeled CTRP4, OSM or IL-6; 24 hours at 4°C, 25% PEG, γ counter; conditions: one partner purified
T1 construct: IL-6 receptor in membrane protein or membrane extract of Jurkat cells; also called IL-6Rα; source: Jurkat cells, membrane extract
T1 sequence (looked up): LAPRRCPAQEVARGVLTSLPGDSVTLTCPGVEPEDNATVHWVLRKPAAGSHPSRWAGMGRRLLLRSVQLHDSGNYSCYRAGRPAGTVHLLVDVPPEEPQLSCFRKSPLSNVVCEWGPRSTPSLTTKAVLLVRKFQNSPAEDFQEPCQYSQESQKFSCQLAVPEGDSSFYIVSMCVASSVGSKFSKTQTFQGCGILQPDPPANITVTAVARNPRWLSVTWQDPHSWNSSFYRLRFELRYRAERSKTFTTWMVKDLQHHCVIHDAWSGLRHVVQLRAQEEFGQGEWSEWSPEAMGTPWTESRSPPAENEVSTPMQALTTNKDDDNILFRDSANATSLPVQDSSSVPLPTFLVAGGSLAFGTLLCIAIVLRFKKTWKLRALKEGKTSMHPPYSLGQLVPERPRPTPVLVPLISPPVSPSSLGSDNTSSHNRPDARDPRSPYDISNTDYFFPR

[2] = biological target: T1, IL-6 receptor (IL-6R), in Jurkat cell …; test: radioligand binding; saturation: equivalent quantities of Jurkat cell membrane extract with 2-fold serial dilutions of 125I-CTRP4; nonspecific binding with 500-fold excess of CTRP4; 24 hours at 4°C, 25% PEG, γ counter; conditions: one partner purified

IC50 [1]: 77.2 nM
B1: rhCTRP4 protein (unlabeled) (natural protein)
chain: not shown
notes: rhCTRP4 protein purified from CTRP4-CHO cells; also called unlabeled CTRP4; recombinant CTRP4 protein

Kd [2]: 3.94 nM
B2: 125I-CTRP4 (natural protein)
chain: not shown
modifications: 125I label (chloramine T)
notes: rhCTRP4 protein purified from CTRP4-CHO cells; also called radio-iodinated CTRP4; 125I-labeled CTRP4
